# Patent US20110236679A1 (FUJIFILM, published 2011)
# B1: C-terminal heptapeptide fragment of BGP (RRFYGPY) (peptide)
# peptide: RRFYGPY
# notes: also called BGP heptapeptide; osteocalcin C-terminal heptapeptide
# B2: VH(HEL)-His6 and VL(HEL)-His10, separate VH-region and VL-region polypeptides of the anti-hen egg lysozyme antibody LxE16, immobilized together on a sensor chip (other)
# VH: EVQLQESGPSLVKPSQTLSLTCSVTGDSITRGYWSWIRKFPGNKLEYMGYISYSGSTFYNPSLKSRISITRDTFKNQLYLQLNSVTTEDTATYYCAEYDGTYWGQGTTVTVHHHHHHGAAEQKLISEEDLNGAA
# VL: VEFAAQPAMASTDILMTQTPATLSVTPGDSVSLSCRASQSIGNNLHWFQQKSHESPRLLIKYASQSISGIPSRFSGSGSGTDFTLSINTVETEDFGMYFCQQSNSWPYTFGGGTKLEIKRAAAEHHHHHHHHHH
# notes: Two separate chains, not linked; Substrate G was made from the 10:10:3 complex with lysozyme, which was then washed off; In H the chains were immobilized one after the other without antigen; also called immobilization substrates G, H
# How the values were obtained:
# [1] = target: T1, MBP-VH(BGP) and MBP-VL(BGP), separate MBP-fused VH-region and VL-region polypeptides of the anti-osteocalcin …; test: SPR (BIACORE 3000), BGP heptapeptide over immobilized MBP-VH(BGP) and MBP-VL(BGP)
# T1 construct: Two separate chains, not linked, on SENSORCHIP CM5; Substrate I was made from the 1:1:1 complex with the BGP heptapeptide, which was then washed off; In J the chains were immobilized one after the other without antigen; Both entries as printed start with the MBP leader; also called immobilization substrates I, J
# Description: Commercially available SENSORCHIP CM5 (trade name, manufactured by GE Healthcare) was set in a Surface Plasmon Resonance Analyzer (trade name: BIACORE 3000, manufactured by Biacore). The substrate surface was stabilized with HEPES buffer solution for SPR (20 mM HEPES-HCl, 150 mM NaCl, pH 7.4) at a flow rate of 10 μl/min, and then 70 μl of a mixed aqueous solution of 0.2 mM EDC and 0.04 mM NHS was injected thereonto. Thereafter, 50 μl of a two-fold dilution of the above complex sample solution with an acetate buffer (pH 4.5) was injected onto the substrate sample, and then blocking treatment was performed with an ethanolamine solution.
# Time-dependent change in binding over a period of 10 minutes from starting the addition of the BGP heptapeptide was measured using BIACORE 3000. The binding ratio of the BGP heptapeptide was obtained by dividing the binding amount of the BGP heptapeptide over the 10-minutes-period by the immobilization amount of the antibody fragments.
# lysozyme [2] = target: T2, lysozyme (hen (hen egg lysozyme, as named for the …, UniProt P00698 19-147)); test: SPR (BIACORE 3000), 100 nM lysozyme injected for 10 min; lysozyme bound divided by fragments immobilized; fragments immobilized as 10:10:3 complex with lysozyme, antigen washed off
# T2 construct: also called hen egg lysozyme; HEL
# Description: (§1) Time-dependent change in lysozyme binding over a period of 10 minutes from starting the addition of lysozyme was measured using BIACORE 3000. The binding ratio of lysozyme was obtained by dividing the binding amount of lysozyme during the 10-minutes-period by the immobilization amount of the antibody fragments.
# (§2) The binding amount of lysozyme was calculated and expressed as a relative value, assuming that the binding amount of lysozyme in Comparative Example 2 is 1.
# lysozyme [3] = target: T2, lysozyme; test: SPR (BIACORE 3000), 100 nM lysozyme injected for 10 min; lysozyme bound divided by fragments immobilized; VH and VL fragments immobilized one after the other without antigen
# Description: as §1, §2
# T2 sequence (P00698 19-147 limits assumed): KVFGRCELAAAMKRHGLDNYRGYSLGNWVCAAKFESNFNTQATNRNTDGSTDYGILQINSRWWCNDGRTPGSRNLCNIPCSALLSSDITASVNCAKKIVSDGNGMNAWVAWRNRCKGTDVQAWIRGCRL
binder,measurement,setting,value
B1,binding result,[1],binds
B2,Lysozyme binding ratio,lysozyme [2],7.6 relative value (text: Comparative Example 2 = 1; in the table Comparative Example 4 stands at 1)
same,Lysozyme binding ratio,lysozyme [3],1 relative value (text: Comparative Example 2 = 1; in the table Comparative Example 4 stands at 1)
